Assay results: article PMC6215006

The substances below were run against recombinant human macrophage-colony stimulating factor (human) (UniProt P09603).
Chain of UniProt P09603 (P09603 36-181): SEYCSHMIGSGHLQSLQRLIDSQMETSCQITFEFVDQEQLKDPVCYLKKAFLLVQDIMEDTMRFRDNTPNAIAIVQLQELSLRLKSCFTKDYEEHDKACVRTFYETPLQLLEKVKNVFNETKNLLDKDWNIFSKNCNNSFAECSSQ

Substance | inhibition of the differentiation of bone marrow-derived osteoclast precursors into osteoclasts with M-CSF (30 ng/mL) and RANKL (100 ng/mL), TRAP(+) MNCs; maximum inhibitory dose [nM]
mouse syndecan-2 ectodomain from HEK293E cells (from UniProt P43407 19-145) (domain or fragment) | 1
mouse syndecan-3 ectodomain from HEK293E cells (from UniProt Q64519 45-387) (domain or fragment) | 1
mouse syndecan-1 ectodomain from HEK293E cells (from UniProt P18828 23-255) (domain or fragment) | 1
mouse syndecan-4 ectodomain from HEK293E cells (from UniProt O35988 24-145) (domain or fragment) | 1
